Literature values, collected in patent US20230142365A1, “POLY(SARCOSINE) POLYMER EXCIPIENTS” (CALUSA BIO, LLC, priority 2021, published 2023).

Test system: anti-drug antibodies (ADAs)
Settings: share of anti-drug antibodies against the TNF blocker that are neutralizing; van Schie et al. 2015

Substance	ADAs neutralizing
adalimumab	97%
infliximab: tumor necrosis factor (TNF) blocker Remicade (infliximab)	90%
